The values that follow come from paper PMC3365014, “Specific Recognition of p53 Tetramers by Peptides Derived from p53 Interacting Proteins” (PLoS ONE, 2012).

In general, Kd refers to a measure of binding affinity in units of concentration.

Test [1] deals with p53 monomer (Homo sapiens) (UniProt P04637). The conditions noted are these: cited from earlier work.
The target of test [2] is WS100B(61–75), fluorescein-labeled. The test can be described thus: fluorescence polarisation; fluorescence anisotropy at increasing NaCl; p53CTD titrated into 200 nM peptide; 10 mM sodium phosphate pH 7.2, 25°C; ln(Kd) against ln(NaCl activity) fit linearly and extrapolated to physiological ionic strength.

As for p53 monomer (from UniProt P04637), in test [1], the Kd is 1 nM.

As for “p53 C-terminal domain (p53CTD, residues 293–393) (from UniProt P04637 293-393) (domain or fragment)”, the Estimated physiological Kd in test [2] was 19 µM.
